Data on one substance can be found in paper PMC11407943, “Cdc14 phosphatases use an intramolecular pseudosubstrate motif to stimulate and regulate catalysis” (The Journal of Biological Chemistry, 2024).

By Km is commonly meant the concentration of substrate that gives half-maximal velocity.

The data set concerns T1, Cc1cc(=O)oc2c(F)c(OP(=O)(O)O)c(F)cc12.
T1 construct: codons 1-411; N-terminal GST; expressed in E. coli
The format is biochemical. Particulars: pH 7.5; 30.0 °C. The source says: Enzym e kcat (sec-1) KM (µM)

“hCdc14B^3A (Homo sapiens; K435A/L431A/R432A)”: the Km worked out at 1.68 µM.
